According to US6436636B1, “Methods for identifying pharmacologicals for the treatment of heart failure” (Wake Forest University, priority 1995, dated 2002):

Columns and labels:
Experiment in all cases: UV-crosslinking of recombinant p37AUF1 to radiolabeled RNA
Format in all cases: binding
Details in all cases: UV irradiation, Rnase A+T1 digestion, SDS-PAGE, autoradiography
rabbit β-globin (Rβ) RNA = tested on: rabbit β-globin (Rβ) RNA
Text: (§1) FIG. 5 represents an autoradiogram showing UV-crosslinking of purified, recombinant p37AUF1 polypeptide to human β1-AR 3′UTR RNA. Autoradiogram of recombinant p37AUF1 UV-crosslinked to radiolabeled, in vitro transcribed human β1-AR 3′UTR RNA. Lane 1, β1-AR RNA in the absence of competitor RNA. Lanes 2 and 3, β1-AR RNA is the presence of 10-fold and 100-fold molar excess of unlabeled β1-AR RNA. Lane 4, β1-AR RNA in the presence of 100-fold molar excess of rabbit β-globin RNA (Rb). Lane 5, c-fos ARE only. Lane 6, rabbit β-globin RNA only.
(§2) To show AUF1 binds to the human β1-AR 3′UTR, radiolabeled RNA was incubated with purified, recombinant p37AUF1, subjected to UV irradiation, Rnase A+T1 digestion, SDS-PAGE, and autoradiography. Recombinant p37AUF1 polypeptide binds to the β1-AR 3′UTR and to the c-fos ARE but fails to bind to rabbit β-globin (Rβ) RNA (FIG. 5).
(§3) A 0.3M KC1 ribosomal salt wash (RSW) was produced from DDT1-MF2 cells using the method of Brewer and Ross, Methods in Enzyznology 181:202-209 (1990). UV-crosslinking was performed as described in Port et al., J. Biol. Chem. 267:24103-24108 (1992) Briefly, an aliquot of radiolabeled RNA (1-4×10^6 cpm) was added to a mixture containing 20 μl of RSW (˜5×10^6 cell equivalents/μl) from DDT1-MF2 cells, 5 μg of yeast tRNA, 4 mM dithiothreitol, 5 μg heparin, and 65 units of Rnasin™ in a total volume of 50 μl. […]

c-fos ARE = tested on: c-fos ARE
Text: as §1, §2, §3

human β1-AR 3′UTR RNA = tested on: human β1-AR 3′UTR RNA
Text: as §1, §2
A 919 bp cDNA fragment corresponding to the β1AR 3′ UTR was synthesized by PCR and subcloned into pcDNA3 (Invitrogen) utilizing the Xho I and Xba I restriction endonuclease sites. The resulting vector was linearized with Xba I, and in vitro transcription was performed as described in Port et al., J. Biol. Chem. 267:24103-24108 (1992). Briefly, radiolabeled RNA was synthesized using T7 DNA-directed RNA polymerase and [α-^32P]UTP (800 Ci/mmol, New England Nuclear) to produce uniformly labeled, 5′-capped RNA. […]

B1: p37AUF1: purified, recombinant p37AUF1 polypeptide (His6 fusion expressed in E. coli), A+U-rich element RNA-binding factor (protein)
chain: MSEEQFGGDGAAAAATAAVGGSAGEQEGAMVAATQGAAAAAGSGAGTGGGTASGGTEGGSAESEGAKIDASKNEEDEGKMFIGGLSWDTTKKDLKDYFSKFGEVVDCTLKLDPITGRSRGFGFVLFKESESVDKVMDQKEHKLNGKVIDPKRAKAMKTKEPVKKIFVGGLSPDTPEEKIREYFGGFGEVESIELPMDNKTNKRRGFCFITFKEEEPVKKIMEKKYHNVGLSKCEIKVAMSKEQYQQQQQWGSRGGFAGRARGRGGDQQSGYGKVSRRGGHQNSYKPY
modifications: left off: small tags and cut ends
B1 was tested, and the “binding to rabbit β-globin (Rβ) RNA” value (rabbit β-globin (Rβ) RNA) was “fails to bind”, the “binding to c-fos ARE” value (c-fos ARE) was “binds” and the “binding to β1-AR 3′UTR” value (human β1-AR 3′UTR RNA) was “binds”.
